# Test results taken from PMC3759463 (PLoS ONE, 2013).
# Like-named read-outs stand apart in the source and are kept apart here. Peptide text beside a SMILES is read from it.
# Key:
# [1] = target: HLA-DRB1*15∶01 (recombinant HLA-DR alpha chain with FOS zipper paired with HLA-DRB1*15∶01 beta chain with JUN zipper and BSP); assay: AlphaScreen or HTRF
# [2] = target: HLA-DRB5*01∶01 (recombinant HLA-DR alpha chain with FOS zipper paired with HLA-DRB5*01∶01 beta chain with JUN zipper and BSP); assay: AlphaScreen or HTRF
# [3] = target: HLA-DRB1*01∶01 (recombinant HLA-DR alpha chain with FOS zipper paired with HLA-DRB1*01∶01 beta chain with JUN zipper and BSP); assay: AlphaScreen or HTRF
# HLA-DRB1*15∶01 = target: T1, HLA-DRB1*15∶01 (Homo sapiens, UniProt P01903+P01911); assay: biochemical; assay type: binding; settings: C-terminally H6-tagged peptide, read-out: KD (nM) HLA-DRB1*15∶01 + tag
# T1 construct: expression of transmembrane-truncated versions of isolated α and in vivo biotinylated β chain molecules in E. coli; made in house
# HLA-DRB5*01∶01 = target: T2, HLA-DRB5*01∶01 (Homo sapiens, UniProt P01903+Q30154); assay: biochemical; assay type: binding
# T2 construct: expression of transmembrane-truncated versions of isolated α and in vivo biotinylated β chain molecules in E. coli; made in house
# HLA-DRB1*01∶01 = target: T3, HLA-DRB1*01∶01 (Homo sapiens, UniProt P01903+P01911, A100R/D57E/F55L/F60I/F76Y/I96L/L162R/M171V/P40L/Q125E/R42F/V115G/Y59C); assay: biochemical; assay type: binding; settings: C-terminally H6-tagged peptide, read-out: KD (nM) HLA-DRB1*01∶01 + tag
# T3 construct: expression of transmembrane-truncated versions of isolated α and in vivo biotinylated β chain molecules in E. coli; made in house
# [4] = C-terminally H6-tagged peptide, […], read-out: KD (nM) HLA-DRB5*01∶01 + tag
compound,measurement,setting,value
Influenza A peptide HA_(307–318),Kd,[1],25 nM
same,Kd,[2],4 nM
same,Kd,[3],9 nM
CC(C)C[C@H](NC(=O)[C@H](CCCCN)NC(=O)[C@H](CC(C)C)NC(=O)[C@@H](NC(=O)[C@H](CC(N)=O)NC(=O)[C@H](CCC(N)=O)NC(=O)[C@H](CCCCN)NC(=O)[C@@H](NC(=O)[C@H](Cc1ccc(O)cc1)NC(=O)[C@H](CCCCN)NC(=O)[C@@H](N)Cc1ccc(O)cc1)C(C)C)[C@@H](C)O)C(=O)N[C@@H](C)C(=O)N[C@H](C(=O)N[C@@H](Cc1c[nH]cn1)C(=O)N[C@@H](Cc1c[nH]cn1)C(=O)N[C@@H](Cc1c[nH]cn1)C(=O)N[C@@H](Cc1c[nH]cn1)C(=O)N[C@@H](Cc1c[nH]cn1)C(=O)N[C@@H](Cc1c[nH]cn1)C(=O)O)[C@@H](C)O [Influenza A HA306–318 + tag] (H-YKYVKQNTLKLATHHHHHH-OH),Kd,HLA-DRB1*15∶01,345 nM
same,Kd,HLA-DRB5*01∶01; [4],17 nM
CC(C)C[C@H](NC(=O)[C@@H](NC(=O)[C@H](Cc1ccccc1)NC(=O)[C@@H](NC(=O)[C@H](Cc1ccccc1)NC(=O)CNC(=O)[C@@H](N)CC(C)C)C(C)C)[C@@H](C)O)C(=O)N[C@H](C(=O)N[C@H](C(=O)N1CCC[C@H]1C(=O)N[C@@H](CO)C(=O)N[C@@H](CCC(=O)O)C(=O)N[C@@H](CCCNC(=N)N)C(=O)NCC(=O)N[C@@H](Cc1c[nH]cn1)C(=O)N[C@@H](Cc1c[nH]cn1)C(=O)N[C@@H](Cc1c[nH]cn1)C(=O)N[C@@H](Cc1c[nH]cn1)C(=O)N[C@@H](Cc1c[nH]cn1)C(=O)N[C@@H](Cc1c[nH]cn1)C(=O)O)C(C)C)[C@@H](C)O [Influenza A MP60–72 + tag] (H-LGFVFTLTVPSERGHHHHHH-OH),Kd,HLA-DRB1*01∶01,40 nM
same,Kd,HLA-DRB1*15∶01,282 nM
same,Kd,HLA-DRB5*01∶01; [4],13 nM
Hepatitis C peptide Hep C-NS3_(218–235(H6)),Kd,[1],2 nM
same,Kd,[2],37 nM
same,Kd,[3],5 nM
cytomegalovirus (CMV) peptide IE1_(211–225(H6)),Kd,[1],127 nM
same,Kd,[2],8 nM
same,Kd,[3],42 nM
Influenza A peptide MP_(60–73(H6)),Kd,[1],282 nM
same,Kd,[2],13 nM
same,Kd,[3],40 nM
Influenza A peptide HA_(307–318(H6)),Kd,[1],345 nM
same,Kd,[2],17 nM
same,Kd,[3],19 nM
Hepatitis C (Hep C) peptide NS3_(218–235),Kd,[1],2 nM
same,Kd,[3],3 nM
Influenza A peptide MP_(60–73),Kd,[1],270 nM
same,Kd,[2],7 nM
same,Kd,[3],17 nM
cytomegalovirus (CMV) peptide IE1_(211–225),Kd,[2],8 nM
"CC(C)C[C@H](NC(=O)[C@@H](NC(=O)[C@H](Cc1ccccc1)NC(=O)[C@@H](NC(=O)[C@H](Cc1ccccc1)NC(=O)CNC(=O)[C@@H](N)CC(C)C)C(C)C)[C@@H](C)O)C(=O)N[C@H](C(=O)N[C@H](C(=O)N1CCC[C@H]1C(=O)N[C@@H](CO)C(=O)N[C@@H](CCC(=O)O)C(=O)N[C@@H](CCCNC(=N)N)C(=O)NCC(=O)O)C(C)C)[C@@H](C)O [Influenza A MP60–72, reference compound]",Kd,HLA-DRB5*01∶01; read-out: KD (nM) HLA-DRB5*01∶01 − tag,7 nM
